In PMC11734750, “Using environment-sensitive tetramethylated thiophene-BODIPY fluorophores in DNA probes for studying effector-induced conformational changes of protein–DNA complexes” (RSC Chemical Biology, 2025):

What was measured:
[1] = target: T1, LutR (LutR-FL, full-length); assay: microscale thermophoresis (label-free); type: binding, Bacillus subtilis; conditions: 8 μM LutR; 20 mM Tris-HCl pH 7.5, 250 mM NaCl, 0.02% β-mercaptoethanol; free protein without DNA; effector
T1 construct: full-length residues 2-240, N-terminal His6 and TEV site (pMCSG7-derived vector), His6-tagged protein purified and apparently tag kept; expressed in E. coli BL21(DE3)

[2] = target: DNA-binding domain of LutR (LutR–DBD, residues 2–78) (Bacillus subtilis); assay: SEC; analytical SEC, Superdex 200 10/300 GL, room temperature, PBS pH 7.4; protein 3 mg/ml (33.2 uM as printed); alone and with DNA (protein:DNA 2:1)
[3] = target: Full-length LutR (LutR-FL, amino-acid residues 2–240) (Bacillus subtilis); assay: SEC; analytical SEC, Superdex 200 10/300 GL, room temperature, 20 mM Tris-HCl pH 7.5, 250 mM NaCl, 0.02% beta-mercaptoethanol; protein 2 mg/ml (66.7 uM), DNA 50 uM, protein:DNA 2:1.5; with and without 50 mM L-lactate; dimer told for the DNA-bound protein

Question: `C[C@H](O)C(=O)O` [L-lactate] was tested. Which Kd [1] did it give?
Answer: Its Kd is 2.3 ± 0.005 mM.

Question: With “DNA-binding domain of LutR (LutR–DBD, residues 2–78) (domain or fragment)” as the molecule, how does the stoichiometry N [2] read?
Answer: The stoichiometry N was 2.

Question: For “Full-length LutR (LutR-FL, amino-acid residues 2–240) (natural protein)”, which stoichiometry N [3] is on record?
Answer: Its stoichiometry N is 2.
